Test results: US5114710A, “M-CSF as a therapeutic agent for thrombocytopenia” (Green Cross Corporation, priority 1988, dated 1992)
Entries after “also recorded” stand apart in the source; their conditions may differ.

Legend:
mouse marrow cells = experiment: Colony stimulating activity: colony formation of mouse marrow cells on single-layer soft agar gel; type: cell-based
Experimental: (§1) The colony stimulating activity of the CSF according to the invention was determined by the method involving colony formation of mouse marrow cells on a single-layer soft agar gel. Thus, the CSF sample was admixed with 1 ml of McCoy's 5A medium (GIBCO) containing 0.3% agar, 20% fetal calf serum (FCS) and 1×10^5 mouse marrow cells. Incubation was carried out at 37° C. for 7 days under a stream of 7.5% CO2 -containing air. Thereafter, cell aggregates consisting of 50 or more cells were judged as colonies and counted. The colony stimulating activity was expressed in units. One unit was defined as the quantity of CSF required for the formation of one colony. The specific activity was expressed in terms of the number of colonies (units) formed per milligram of the CSF protein. […] The colonies formed were stained with hematoxylin-eosin for morphological classification.

[1] = system: patients with thrombocytopenia; experiment: Administration to patients with thrombocytopenia (summary of clinical test examples 1 and 2); type: in vivo, human; settings: administration in the course of chemotherapy
From the text: A malignant tumor patient was subjected to chemotherapy (first chemotherapy), then merely observed for a period (control phase) and, after a second chemotherapy, administered with 8×10^6 units of a glycoprotein preparation comprising the prepared in Reference Example 1 as active ingredient by intravenous drip for 7 consecutive days (preparation administration phase). Blood granulocytes and platelets were counted at timed intervals. The minimum platelet count and the number of days required for the platelet level to regain a level of at least 10^5 /mm^3 in the control phase and in the preparation administration phase are comparatively shown in Table 4.
Ten malignant tumor patients were subjected to a first chemotherapy, then observed without any treatment for a period (control phase) and, after a second chemotherapy, administered with 8×10^6 units of a glycoprotein preparation comprising the CSF prepared in Reference Example 1 as active ingredient by intravenous drip for 7 consecutive days (preparation administration phase). Blood platelets were counted at timed intervals. The minimum platelet count and the number of days required for the platelet count to regain a level of at least 10^5 /mm^3 in the control phase and in the preparation administration phase are comparatively shown in Table 5.

[2] = Isoelectric point by polyacrylamide gel isoelectric focusing and sucrose density gradient isoelectric focusing; type: physicochemical
From the text: The isoelectric point (pI) as determined by the polyacrylamide gel isoelectric focusing and sucrose density gradient isoelectric focusing techniques is 3.1-3.7.

[3] = Thermal stability: colony stimulating activity after heating; type: physicochemical; settings: 1 μg/ml, dilute buffer pH 7.0, 60±0.5° C., 60 minutes
Experimental: The CSF was dissolved in a dilute buffer (pH 7.0) to a concentration of 1 μg/ml, and the solution was heated at 60±0.5° C. for 60 minutes and then assayed for colony stimulating activity (to be mentioned later herein).
as §1

B1: CSF: human monocyte-macrophage colony stimulating factor, glycoprotein homodimer of two identical subunits (35,000-45,000 daltons each), purified from human urine (protein, UniProt P09603 33-554, looked up)
Macrophage colony-stimulating …: EEVSEYCSHMIGSGHLQSLQRLIDSQMETSCQITFEFVDQEQLKDPVCYLKKAFLLVQDIMEDTMRFRDNTPNAIAIVQLQELSLRLKSCFTKDYEEHDKACVRTFYETPLQLLEKVKNVFNETKNLLDKDWNIFSKNCNNSFAECSSQDVVTKPDCNCLYPKAIPSSDPASVSPHQPLAPSMAPVAGLTWEDSEGTEGSSLLPGEQPLHTVDPGSAKQRPPRSTCQSFEPPETPVVKDSTIGGSPQPRPSVGAFNPGMEDILDSAMGTNWVPEEASGEASEIPVPQGTELSPSRPGGGSMQTEPARPSNFLSASSPLPASAKGQQPADVTGTALPRVGPVRPTGQDWNHTPQKTDHPSALLRDPPEPGSPRISSLRPQGLSNPSTLSAQPQLSRSHSSGSVLPLGELEGRRSTRDRRSPAEPEGGPASEGAARPLPRFNSVPLTDTGHERQSEGSFSPQLQESVFHLLVPSVILVLLAVGGLLFYRWRRRSHQEPQRADSPLEQPEGSPLTQDDRQVELPV
modifications: urinary homodimer
notes: human monocyte-macrophage colony stimulating factor, glycoprotein homodimer of two identical subunits (35,000-45,000 daltons each), purified from human urine
specific activity (mouse marrow cells; Reference Example 2, CSF purified with antibody-bound carrier): 5.2×10^7 units/mg
specific activity (mouse marrow cells; Reference Example 2, CSF-containing solution before antibody-bound carrier treatment): 2 ×10^5 units/mg
monocyte-macrophage colonies among the colonies formed (mouse marrow cells; hematoxylin-eosin staining, morphological classification): at least 95%
specific activity (mouse marrow cells; purification step (1) DEAE-cellulose): 1.6 × 10^5 units/mg
specific activity (mouse marrow cells; purification step (2) Sephacryl S-300): 5.7 × 10^5 units/mg
specific activity (mouse marrow cells; purification step (3) Phenyl-Sepharose): 8.8 × 10^6 units/mg
specific activity (mouse marrow cells; purification step (4) TSKG-3,000 SW): 2.0 × 10^7 units/mg
specific activity (mouse marrow cells; purification step (5) Hi-Pore RP-304 (final)): 1.4 × 10^8 units/mg
specific activity (colony stimulating activity) (mouse marrow cells; purified CSF, mouse marrow cells, 7 days at 37° C., one unit = one colony): 1.4×10^8 units per milligram of protein
restoration of a normal platelet level [1]: rapid restoration of a normal platelet level
isoelectric point (pI) [2]: 3.1-3.7
thermal stability (colony stimulating activity after heating) [3]: The biological activity is not lost; also recorded: Almost no activity decrease was observed
